# Measured values published in the RNAGym collection of RNA variant scans (doi:10.7554/elife.90254).
# B1: LINE1-mini (parent)
# chain: GGCAGAGCUCAACACAGCGUGGCAAAGUGGCUGUGGCUAGACUGCC
# Variants of: B1
# Test: self-cleavage, relative activity (ratio to wild type); higher = more cleavage; in vitro, sequencing; the parent is a self-cleaving ribozyme
row,Variant,self-cleavage
1,G30A A39G,0.11
2,C15A A24U,0.12
3,C8U C45G,0.46
4,C23U C42U,0.91
5,C13G G35C,0.81
6,G5A C46U,0.12
7,A6G A11G,0.02
8,C13U A41U,0.15
9,G5U G29A,0.15
10,C8U G44C,0.08
11,A6G G17C,0.09
12,A12U G29U,0.37
13,A26G U34A,0.04
14,G19C G44A,0.15
15,G1A A4G,0.31
16,G2A U32A,0.14
17,A14C A26U,0.09
18,A4C U28C,0.22
19,U9G G21U,0.06
20,U9G G21A,0.13
21,C10G G33C,0.02
22,C42G C46A,0.04
23,C13A G22C,0.05
24,G1U C3U,0.27

row,Variant,self-cleavage
1,G40A C45U,0.16
2,G2U A14U,0.04
3,A11U G22C,0.07
4,G29C C42A,0.1
5,A16U G33C,0.07
6,G5C A39U,0.06
7,U9G C42G,0.06
8,C13A C15U,0.12
9,G22A C45U,1.44
10,U32G U34A,0.04
11,U20G G27A,0.72
12,U34G U38A,0.3
13,A25U A41C,0.07
14,G5C C31A,0.08
15,G5C C31U,0.05
16,G19A C31U,0.6
17,G30C C37U,0.1
18,G5A C37G,0.05
19,G21A G29U,2.19
20,G27C C37G,0.02
21,A25G U38G,0.01
22,A6C G29A,0.7
23,G2A A6G,0.13
24,G29C U32G,0.2

row,Variant,self-cleavage
1,A14U G22U,0.87
2,C8U U43G,0.12
3,G2A A26U,1.83
4,C15G G44C,0.04
5,G5A G27C,0.07
6,A14G U43A,0.05
7,A26C C31A,0.38
8,C8G G17U,0.07
9,A14G U34A,0.16
10,C8A C37U,0.17
11,G2C U20G,0.05
12,C13A G36C,0.06
13,G5A A6U,0.12
14,C31G C42U,0.09
15,U28A G29A,0.6
16,G1U C37U,0.04
17,G29U A39C,0.21
18,U20G A39U,0.56
19,C31U U43G,0.02
20,A12G G44A,0.04
21,C13U A39G,0.11
22,C3G A16C,0.12
23,C8G C42A,0.05
24,G27A G35U,0.22

row,Variant,self-cleavage
1,C10U U34G,0.32
2,G1C C23G,0.08
3,C8U A16C,0.13
4,A39C C45A,0.14
5,A25U U32C,0.27
6,U9C G44C,0.02
7,G29U C45U,1.99
8,A6G C46A,0.13
9,A4G G21C,0.24
10,C3G C18A,0.17
11,G22U U34A,0.19
12,G22C C46U,0.65
13,G7A A11C,0.03
14,A24C A25G,0.89
15,C13G U34G,0.03
16,U43A G44C,0.1
17,A16G G44C,0.19
18,G2A C23G,0.4
19,A14C A16U,0.12
20,G5A C10A,0.04
21,G17A G29A,0.37
22,C37U C45A,0.06
23,G27C U38A,0.34
24,A12C A16G,0.02

row,Variant,self-cleavage
1,A26U A39G,0.22
2,G1C C37A,0.02
3,G2C C13G,0.03
4,G5U C45A,0.08
5,A11U G21A,0.33
6,A11U G21U,0.1
7,C3U G19C,0.25
8,G5U C46A,0.11
9,A16G,0.61
10,G19U U20G,0.77
11,G44A C46G,0.12
12,A24U A39C,0.23
13,A11G G40C,0.02
14,C10U C15U,0.28
15,G21C G22U,0.46
16,A25C A41G,0.28
17,A25C A41U,0.52
18,C31G U43G,0.05
19,C15A A25U,0.07
20,G2U A16C,0.13
21,A14G G29A,0.78
22,C10U A14G,0.22
23,G36A C37G,0.05
24,A4U C42U,0.14

row,Variant,self-cleavage
1,C18U G19A,1.13
2,U9C A11G,0.02
3,G44C C45U,0.06
4,C10A U43A,0.01
5,C3G G21A,1.1
6,C15U A16U,0.1
7,G29C G36C,0.05
8,A24C A26C,0.28
9,G19U A39C,0.06
10,U32C G36A,0.08
11,G30C G33U,0.07
12,G30C G33C,0.03
13,U20C A25C,0.75
14,A16U A39G,0.07
15,A4U A12C,0.03
16,G33A C37A,0.12
17,U20A U34A,0.08
18,G36U C37G,0.05
19,A16U U34G,0.02
20,A6U U43G,0.08
21,U34A G36U,0.04
22,U32G C45G,0.11
23,A24G G30A,1.11
24,A24C A41U,0.26

row,Variant,self-cleavage
1,A6U C23G,0.46
2,G29A C37G,0.02
3,G2U C45U,0.11
4,G1C G29U,0.14
5,G30U C45U,1.11
6,G29A U34G,0.38
7,C13G G33U,0.03
8,G5A C18U,0.14
9,C3U C31G,0.04
10,C3U G29C,0.37
11,A24U G36C,0.11
12,G2C A16G,0.09
13,A25U U38A,0.6
14,G22C G40U,0.14
15,G22C G40A,0.09
16,G17U A41C,0.1
17,G33A A39G,0.09
18,C8G A24C,0.09
19,A4U C15U,0.19
20,C23U A25G,1.17
21,C3U G17U,0.12
22,A6C U20A,0.52
23,A16C U34C,0.07
